From US10131702B2, “Glucagon-GLP-1-GIP triple agonist compounds” (priority 2013, dated 2018)
Where two headings read alike, the source gives them in different places. Numbered stars: 1 amine (or outer) side, 2 acyl side, 3 side chain; on linkers, the order of the positions; unused ones are H or OH. Square brackets hold non-standard residues; d marks the D form. Side chains are listed from the residue outwards. * marks the point of attachment. C18 diacid = O=C(O)CCCCCCCCCCCCCCCCC(=O)*; γGlu = O=C(O)[C@H](CCC(=O)[*:2])N[*:1]; Stearoyl = CCCCCCCCCCCCCCCCCC(=O)*; Aib = CC(C)(N)C(=O)O

T1: human GIP receptor (human, UniProt P48546 22-466)
T1 sequence: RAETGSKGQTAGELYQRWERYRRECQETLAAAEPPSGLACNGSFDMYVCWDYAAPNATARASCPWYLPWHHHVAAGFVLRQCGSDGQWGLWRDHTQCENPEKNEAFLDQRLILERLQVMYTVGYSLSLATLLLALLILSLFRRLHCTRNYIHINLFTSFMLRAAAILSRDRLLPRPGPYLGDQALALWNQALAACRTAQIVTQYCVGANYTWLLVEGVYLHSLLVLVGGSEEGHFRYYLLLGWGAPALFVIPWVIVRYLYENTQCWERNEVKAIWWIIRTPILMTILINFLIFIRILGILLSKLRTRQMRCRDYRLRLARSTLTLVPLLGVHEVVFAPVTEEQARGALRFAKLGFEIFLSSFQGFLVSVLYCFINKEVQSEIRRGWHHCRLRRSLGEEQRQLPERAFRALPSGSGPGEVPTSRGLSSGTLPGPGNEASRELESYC

B1: Compound 22 (peptide)
peptide: YAQGTFTSDYSKYLEKKAQKEFVEWLLSA
HELM: PEPTIDE1{Y.[Aib].Q.G.T.F.T.S.D.Y.S.K.Y.L.E.K.K.A.Q.K.E.F.V.E.W.L.L.S.A.[am]}$$$$V2.0
SMILES: CC(C)C[C@H](NC(=O)[C@H](CC(C)C)NC(=O)[C@H](Cc1c[nH]c2ccccc12)NC(=O)[C@H](CCC(=O)O)NC(=O)[C@@H](NC(=O)[C@H](Cc1ccccc1)NC(=O)[C@H](CCC(=O)O)NC(=O)[C@H](CCCCN)NC(=O)[C@H](CCC(N)=O)NC(=O)[C@H](C)NC(=O)[C@H](CCCCN)NC(=O)[C@H](CCCCN)NC(=O)[C@H](CCC(=O)O)NC(=O)[C@H](CC(C)C)NC(=O)[C@H](Cc1ccc(O)cc1)NC(=O)[C@H](CCCCN)NC(=O)[C@H](CO)NC(=O)[C@H](Cc1ccc(O)cc1)NC(=O)[C@H](CC(=O)O)NC(=O)[C@H](CO)NC(=O)[C@@H](NC(=O)[C@H](Cc1ccccc1)NC(=O)[C@@H](NC(=O)CNC(=O)[C@H](CCC(N)=O)NC(=O)C(C)(C)NC(=O)[C@@H](N)Cc1ccc(O)cc1)[C@@H](C)O)[C@@H](C)O)C(C)C)C(=O)N[C@@H](CO)C(=O)N[C@@H](C)C(N)=O
B2: Compound 25 (peptide)
peptide: YAQGTFTSDYSKYLEKKAAKEFVEWLLSA
HELM: PEPTIDE1{Y.[Aib].Q.G.T.F.T.S.D.Y.S.K.Y.L.E.K.K.A.A.K.E.F.V.E.W.L.L.S.A.[am]}|PEPTIDE2{[CCCCCCCCCCCCCCCC(=O)[*:2]].[gGlu]}$PEPTIDE1,PEPTIDE2,12:R3-2:R2$$$V2.0
SMILES: CCCCCCCCCCCCCCCC(=O)N[C@@H](CCC(=O)NCCCC[C@H](NC(=O)[C@H](CO)NC(=O)[C@H](Cc1ccc(O)cc1)NC(=O)[C@H](CC(=O)O)NC(=O)[C@H](CO)NC(=O)[C@@H](NC(=O)[C@H](Cc1ccccc1)NC(=O)[C@@H](NC(=O)CNC(=O)[C@H](CCC(N)=O)NC(=O)C(C)(C)NC(=O)[C@@H](N)Cc1ccc(O)cc1)[C@@H](C)O)[C@@H](C)O)C(=O)N[C@@H](Cc1ccc(O)cc1)C(=O)N[C@@H](CC(C)C)C(=O)N[C@@H](CCC(=O)O)C(=O)N[C@@H](CCCCN)C(=O)N[C@@H](CCCCN)C(=O)N[C@@H](C)C(=O)N[C@@H](C)C(=O)N[C@@H](CCCCN)C(=O)N[C@@H](CCC(=O)O)C(=O)N[C@@H](Cc1ccccc1)C(=O)N[C@H](C(=O)N[C@@H](CCC(=O)O)C(=O)N[C@@H](Cc1c[nH]c2ccccc12)C(=O)N[C@@H](CC(C)C)C(=O)N[C@@H](CC(C)C)C(=O)N[C@@H](CO)C(=O)N[C@@H](C)C(N)=O)C(C)C)C(=O)O
B3: Compound 24 (peptide)
peptide: YAQGTFTSDYSIYLEKKAAKEFVEWLLSA
HELM: PEPTIDE1{Y.[Aib].Q.G.T.F.T.S.D.Y.S.I.Y.L.E.K.K.A.A.K.E.F.V.E.W.L.L.S.A.[am]}|PEPTIDE2{[CCCCCCCCCCCCCCCC(=O)[*:2]].[gGlu]}$PEPTIDE1,PEPTIDE2,16:R3-2:R2$$$V2.0
SMILES: CCCCCCCCCCCCCCCC(=O)N[C@@H](CCC(=O)NCCCC[C@H](NC(=O)[C@H](CCC(=O)O)NC(=O)[C@H](CC(C)C)NC(=O)[C@H](Cc1ccc(O)cc1)NC(=O)[C@@H](NC(=O)[C@H](CO)NC(=O)[C@H](Cc1ccc(O)cc1)NC(=O)[C@H](CC(=O)O)NC(=O)[C@H](CO)NC(=O)[C@@H](NC(=O)[C@H](Cc1ccccc1)NC(=O)[C@@H](NC(=O)CNC(=O)[C@H](CCC(N)=O)NC(=O)C(C)(C)NC(=O)[C@@H](N)Cc1ccc(O)cc1)[C@@H](C)O)[C@@H](C)O)[C@@H](C)CC)C(=O)N[C@@H](CCCCN)C(=O)N[C@@H](C)C(=O)N[C@@H](C)C(=O)N[C@@H](CCCCN)C(=O)N[C@@H](CCC(=O)O)C(=O)N[C@@H](Cc1ccccc1)C(=O)N[C@H](C(=O)N[C@@H](CCC(=O)O)C(=O)N[C@@H](Cc1c[nH]c2ccccc12)C(=O)N[C@@H](CC(C)C)C(=O)N[C@@H](CC(C)C)C(=O)N[C@@H](CO)C(=O)N[C@@H](C)C(N)=O)C(C)C)C(=O)O
B4: Compound 23 (peptide)
peptide: YAQGTFTSDYSIYLEKKAAKEFVEWLLSA
HELM: PEPTIDE1{Y.[Aib].Q.G.T.F.T.S.D.Y.S.I.Y.L.E.K.K.A.A.K.E.F.V.E.W.L.L.S.A.[am]}|PEPTIDE2{[CCCCCCCCCCCCCCCC(=O)[*:2]].[gGlu]}$PEPTIDE1,PEPTIDE2,17:R3-2:R2$$$V2.0
SMILES: CCCCCCCCCCCCCCCC(=O)N[C@@H](CCC(=O)NCCCC[C@H](NC(=O)[C@H](CCCCN)NC(=O)[C@H](CCC(=O)O)NC(=O)[C@H](CC(C)C)NC(=O)[C@H](Cc1ccc(O)cc1)NC(=O)[C@@H](NC(=O)[C@H](CO)NC(=O)[C@H](Cc1ccc(O)cc1)NC(=O)[C@H](CC(=O)O)NC(=O)[C@H](CO)NC(=O)[C@@H](NC(=O)[C@H](Cc1ccccc1)NC(=O)[C@@H](NC(=O)CNC(=O)[C@H](CCC(N)=O)NC(=O)C(C)(C)NC(=O)[C@@H](N)Cc1ccc(O)cc1)[C@@H](C)O)[C@@H](C)O)[C@@H](C)CC)C(=O)N[C@@H](C)C(=O)N[C@@H](C)C(=O)N[C@@H](CCCCN)C(=O)N[C@@H](CCC(=O)O)C(=O)N[C@@H](Cc1ccccc1)C(=O)N[C@H](C(=O)N[C@@H](CCC(=O)O)C(=O)N[C@@H](Cc1c[nH]c2ccccc12)C(=O)N[C@@H](CC(C)C)C(=O)N[C@@H](CC(C)C)C(=O)N[C@@H](CO)C(=O)N[C@@H](C)C(N)=O)C(C)C)C(=O)O
B5: Compound 21 (peptide)
peptide: YAQGTFTSDYSKALDEKAAKEFVEWLLSA
HELM: PEPTIDE1{Y.[Aib].Q.G.T.F.T.S.D.Y.S.K.A.L.D.E.K.A.A.K.E.F.V.E.W.L.L.S.A.[am]}$$$$V2.0
SMILES: CC(C)C[C@H](NC(=O)[C@H](C)NC(=O)[C@H](CCCCN)NC(=O)[C@H](CO)NC(=O)[C@H](Cc1ccc(O)cc1)NC(=O)[C@H](CC(=O)O)NC(=O)[C@H](CO)NC(=O)[C@@H](NC(=O)[C@H](Cc1ccccc1)NC(=O)[C@@H](NC(=O)CNC(=O)[C@H](CCC(N)=O)NC(=O)C(C)(C)NC(=O)[C@@H](N)Cc1ccc(O)cc1)[C@@H](C)O)[C@@H](C)O)C(=O)N[C@@H](CC(=O)O)C(=O)N[C@@H](CCC(=O)O)C(=O)N[C@@H](CCCCN)C(=O)N[C@@H](C)C(=O)N[C@@H](C)C(=O)N[C@@H](CCCCN)C(=O)N[C@@H](CCC(=O)O)C(=O)N[C@@H](Cc1ccccc1)C(=O)N[C@H](C(=O)N[C@@H](CCC(=O)O)C(=O)N[C@@H](Cc1c[nH]c2ccccc12)C(=O)N[C@@H](CC(C)C)C(=O)N[C@@H](CC(C)C)C(=O)N[C@@H](CO)C(=O)N[C@@H](C)C(N)=O)C(C)C
B6: Compound 42 (peptide)
peptide: YXQGTFTSDYSIALDKKAQRAFVNWLVAXKPSSGAPPPS
modifications: X at 2 and 29 = Aib; Lys 17 as K(Octadecanoyl-isoGlu-Peg3-Peg3); C-terminal amide (-NH2)
B7: Compound 43 (peptide)
peptide: B6 peptide
modifications: X at 2 and 29 = Aib; Lys 17 as K(Octadecanoyl-Dapa-Peg3-Peg3); C-terminal amide (-NH2)

What was measured:
Assay in all cases: cell-based or functional assay
[1] = target: human glucagon receptor (human) (UniProt P47871)
[2] = target: human GIP receptor (human) (UniProt P48546)
[3] = target: T2, human glucagon-like peptide 1 receptor (human, UniProt P43220 24-463)
human GIP receptor [4] = target: T1, human GIP receptor
human glucagon receptor [5] = target: T3, human glucagon receptor (human, UniProt P47871 26-477)
[6] = target: T2, human glucagon-like peptide 1 receptor; remark: listed apart in the source
human GIP receptor [7] = target: T1, human GIP receptor; remark: listed apart in the source
human glucagon receptor [8] = target: T3, human glucagon receptor; remark: listed apart in the source
[9] = target: human glucagon-like peptide 1 receptor (human) (UniProt P43220)
Sequence of human glucagon-like peptide 1 receptor (human) (P43220 24-463): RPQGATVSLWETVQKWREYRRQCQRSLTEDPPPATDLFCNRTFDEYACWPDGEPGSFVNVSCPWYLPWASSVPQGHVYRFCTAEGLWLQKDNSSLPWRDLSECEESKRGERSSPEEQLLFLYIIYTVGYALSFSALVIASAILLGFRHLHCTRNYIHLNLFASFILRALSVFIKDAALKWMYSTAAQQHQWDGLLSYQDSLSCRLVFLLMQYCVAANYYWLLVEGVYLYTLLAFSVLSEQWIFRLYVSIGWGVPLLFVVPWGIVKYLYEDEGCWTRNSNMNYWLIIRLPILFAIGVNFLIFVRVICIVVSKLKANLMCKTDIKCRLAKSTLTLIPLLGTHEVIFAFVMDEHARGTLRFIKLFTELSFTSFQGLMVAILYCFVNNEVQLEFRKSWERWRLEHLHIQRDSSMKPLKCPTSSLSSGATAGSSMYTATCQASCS

Sequence of human glucagon receptor (human) (P47871 26-477): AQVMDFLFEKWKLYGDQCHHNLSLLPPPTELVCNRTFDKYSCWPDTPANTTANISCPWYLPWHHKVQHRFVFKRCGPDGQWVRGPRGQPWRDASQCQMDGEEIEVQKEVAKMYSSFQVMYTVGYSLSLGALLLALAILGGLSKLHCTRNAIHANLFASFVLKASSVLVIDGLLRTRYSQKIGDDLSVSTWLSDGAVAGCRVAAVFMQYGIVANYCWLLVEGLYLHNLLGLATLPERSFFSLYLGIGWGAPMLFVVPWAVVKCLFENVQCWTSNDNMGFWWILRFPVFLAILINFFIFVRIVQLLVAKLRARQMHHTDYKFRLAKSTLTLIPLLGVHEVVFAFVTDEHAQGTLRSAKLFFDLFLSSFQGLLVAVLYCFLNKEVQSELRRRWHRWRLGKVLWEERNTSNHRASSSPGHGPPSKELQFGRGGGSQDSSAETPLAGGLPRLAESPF
T3 sequence (P47871 26-477): as above

Molecule	EC50 (cAMP induction) [1]	EC50 (cAMP induction) [2]	EC50 (cAMP induction) [3]	EC50 (cAMP induction) (human GIP receptor [4])	EC50 (cAMP induction) (human glucagon receptor [5])	EC50 (cAMP induction) [6]	EC50 (cAMP induction) (human GIP receptor [7])	EC50 (cAMP induction) (human glucagon receptor [8])	EC50 (cAMP induction) [9]
Exendin-4 (from UniProt P26349 48-86) (peptide)	> 10 nM	0.004 nM	–	–	–	–	–	–	–
B1	–	–	0.76 nM	0.03 nM	0.76 nM	0.028 nM	0.18 nM	0.76 nM	–
B2	–	–	0.28 nM	0.25 nM	0.3 nM	0.28 nM	0.25 nM	0.3 nM	–
H-Y[Aib]QGTFTSDYSIYLEKK([Peg3-Peg3-γGlu-C18 diacid])AQRAFVEWLLRA-NH2 [Compound 51]	1.4 nM	0.033 nM	–	–	–	–	–	–	0.026 nM
H-Y[Aib]QGTFTSDLSIALEKK([Peg3-Peg3-γGlu-Stearoyl])AQRAFVEWLLAQK-NH2 [Compound 48]	0.19 nM	0.013 nM	–	–	–	–	–	–	0.013 nM
B3	–	–	0.091 nM	0.1 nM	0.28 nM	0.091 nM	0.1 nM	0.28 nM	–
B4	–	–	0.14 nM	0.11 nM	0.14 nM	0.11 nM	0.13 nM	0.14 nM	–
B5	–	–	0.1 nM	0.015 nM	0.1 nM	0.014 nM	0.18 nM	0.1 nM	–
B6	0.032 nM	0.015 nM	–	–	–	–	–	–	0.036 nM
B7	0.036 nM	0.0098 nM	–	–	–	–	–	–	0.014 nM
